{"source": "patent US20120244162A1", "about": "(MICROMET, published 2012)", "binders": {"B1": {"name": "A2J HLP chimeric IgG antibody (murine IgG1 and human lambda constant regions) (antibody, V domains shown)", "VH": "EVQLLESGGGLVQPGGSLKLSCAASGFTFNVYAMNWVRQAPGKGLEWVARIRSKYNNYATYYADSVKKRFTISRDDSKNTAYLQMNNLKTEDTAVYYCVRHGNFGNSYLSWWAYWGQGTLVTVSS", "VL": "ELVVTQEPSLTVSPGGTVTLTCRSSTGAVTSGYYPNWVQQKPGQAPRGLIGATDMRPSGTPARFSGSLLGGKAALTLSGVQPEDEAEYYCALWYSNRWVFGGGTKLTVLG", "notes": "also called IgG antibody A2J HLP"}, "B2": {"name": "E2M HLP chimeric IgG antibody (murine IgG1 and human lambda constant regions) (antibody, V domains shown)", "VH": "B1 VH with V31G, K68E, G102R, W112F", "VL": "B1 VL", "notes": "also called IgG antibody E2M HLP"}, "B3": {"name": "MCSP-G4 HLP × E2M HLP (bispecific antibody)", "chain": "QVQLVQSGAEVKRPGASMKVSCKASGYTFTNYYIHWVRQAPGQGLEWMGWINPNSGATNYAQKFQGRVTMTRDTSTSTVYMELSSLRSEDTAVYYCAKSWVSWFASWGQGTLVTVSSGGGGSGGGGSGGGGSELVMTQSPDSLAVSLGERATINCKSSQSVLNSSNNRNYLAWYQQKPGQPPKLLIYWASTRESGVPDRFSGSGSGTDFTLTISGLQAEDVAVYYCQQHYSTPFTFGPGTKVDIKSGGGGSEVQLLESGGGLVQPGGSLKLSCAASGFTFNGYAMNWVRQAPGKGLEWVARIRSKYNNYATYYADSVKERFTISRDDSKNTAYLQMNNLKTEDTAVYYCVRHRNFGNSYLSWFAYWGQGTLVTVSSGGGGSGGGGSGGGGSELVVTQEPSLTVSPGGTVTLTCRSSTGAVTSGYYPNWVQQKPGQAPRGLIGATDMRPSGTPARFSGSLLGGKAALTLSGVQPEDEAEYYCALWYSNRWVFGGGTKLTVLHHHHHH"}, "B4": {"name": "EGFR-21-63 LH × A2J HLP (bispecific antibody)", "chain": "DIVLTQSPASLPVSLGQRATISCRASQSVSSSTYSYIHWYQQKPGQPPKLLITYASNLESGVPARFSGSGSGTDFTLDIHPVEEDDSSTYYCQHSWEIPFTFGSGTKLEIKGGGGSGGGGSGGGGSQVQLQQSGPDLVKPGASVKMSCKASGHTFTDCVIIWVKQRAGQGLEWIGQIYPGTGRSYYNEIFKGKATLTADKSSNTVHIQLSSLTSEDSAVYFCALSTLIHGTWFSYWGQGTLVTVSSGGGGSEVQLLESGGGLVQPGGSLKLSCAASGFTFNVYAMNWVRQAPGKGLEWVARIRSKYNNYATYYADSVKKRFTISRDDSKNTAYLQMNNLKTEDTAVYYCVRHGNFGNSYLSWWAYWGQGTLVTVSSGGGGSGGGGSGGGGSELVVTQEPSLTVSPGGTVTLTCRSSTGAVTSGYYPNWVQQKPGQAPRGLIGATDMRPSGTPARFSGSLLGGKAALTLSGVQPEDEAEYYCALWYSNRWVFGGGTKLTVLHHHHHH", "notes": "Bispecific single chain antibody; also called EGFR LH × A2J HLP"}, "B5": {"name": "EGFR-21-63 LH × E2M HLP (bispecific antibody)", "chain": "B4 chain with V282G, K319E, G353R, W363F", "notes": "Bispecific single chain antibody; also called EGFR LH × E2M HLP"}, "B6": {"name": "A2J HLP single-chain antibody (scFv)", "scFv": "EVQLLESGGGLVQPGGSLKLSCAASGFTFNVYAMNWVRQAPGKGLEWVARIRSKYNNYATYYADSVKKRFTISRDDSKNTAYLQMNNLKTEDTAVYYCVRHGNFGNSYLSWWAYWGQGTLVTVSSGGGGSGGGGSGGGGSELVVTQEPSLTVSPGGTVTLTCRSSTGAVTSGYYPNWVQQKPGQAPRGLIGATDMRPSGTPARFSGSLLGGKAALTLSGVQPEDEAEYYCALWYSNRWVFGGGTKLTVLTGDYKDDDDKHHHHHH", "notes": "Crude periplasmic preparation; also called VH-VL-P of A2J"}, "B7": {"name": "E2M HLP single-chain antibody (scFv)", "scFv": "B6 scFv with V31G, K68E, G102R, W112F", "notes": "Crude periplasmic preparation; also called VH-VL-P of E2M"}}, "key": {"[1]": {"biological_target": "T1, human CD3 epsilon alanine mutant, position 5 (E5A) (human, UniProt P07766 22-207)", "T1 construct": "On transfected EL4 cells", "T1 sequence (P07766 other isoform, or with tags, fused parts or gaps limits assumed, stated change not applied)": "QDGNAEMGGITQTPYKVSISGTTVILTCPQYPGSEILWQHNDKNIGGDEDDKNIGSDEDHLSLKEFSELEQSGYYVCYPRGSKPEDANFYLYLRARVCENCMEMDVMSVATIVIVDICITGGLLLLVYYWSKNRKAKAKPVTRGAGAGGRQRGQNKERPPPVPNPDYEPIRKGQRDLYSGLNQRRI", "assay": "alanine scanning, FACS on EL4 transfectants"}, "[2]": {"biological_target": "T2, human CD3 epsilon alanine mutant, position 3 (G3A) (human, UniProt P07766 22-207)", "T2 construct": "On transfected EL4 cells", "T2 sequence (P07766 other isoform, or with tags, fused parts or gaps limits assumed, stated change not applied)": "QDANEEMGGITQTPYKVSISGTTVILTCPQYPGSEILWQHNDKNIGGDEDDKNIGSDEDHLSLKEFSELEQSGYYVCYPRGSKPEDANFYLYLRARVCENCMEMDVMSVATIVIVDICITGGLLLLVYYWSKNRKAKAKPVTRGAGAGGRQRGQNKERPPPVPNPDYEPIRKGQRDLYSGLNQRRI", "assay": "alanine scanning, FACS on EL4 transfectants"}, "[3]": {"biological_target": "T3, human CD3 epsilon alanine mutant, position 2 (D2A) (human, UniProt P07766 22-207)", "T3 construct": "On transfected EL4 cells", "T3 sequence (P07766 other isoform, or with tags, fused parts or gaps limits assumed, stated change not applied)": "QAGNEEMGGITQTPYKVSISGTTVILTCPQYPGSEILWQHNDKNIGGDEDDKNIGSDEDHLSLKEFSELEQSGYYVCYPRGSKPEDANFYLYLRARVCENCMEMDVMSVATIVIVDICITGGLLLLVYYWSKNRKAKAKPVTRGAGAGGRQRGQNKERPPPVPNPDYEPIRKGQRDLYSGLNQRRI", "assay": "alanine scanning, FACS on EL4 transfectants"}, "[4]": {"biological_target": "T4, human CD3 epsilon alanine mutant, position 1 (Q1A) (human, UniProt P07766 23-207)", "T4 construct": "On transfected EL4 cells; positions count on the mature chain", "T4 sequence (P07766 other isoform, or with tags, fused parts or gaps, stated change not applied)": "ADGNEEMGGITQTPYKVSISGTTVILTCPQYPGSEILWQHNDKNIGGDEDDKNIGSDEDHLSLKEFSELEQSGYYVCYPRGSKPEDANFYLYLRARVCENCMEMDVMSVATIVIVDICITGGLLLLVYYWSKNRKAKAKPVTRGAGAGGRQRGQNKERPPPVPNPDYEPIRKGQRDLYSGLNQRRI", "assay": "alanine scanning, FACS on EL4 transfectants"}, "[5]": {"biological_target": "T5, macaque CD3 on the macaque T cell line 4119LnPx (macaque, UniProt Q95LI5 22-198)", "T5 construct": "whole, on cells; Native CD3 complex on 4119LnPx cells; also called cynomolgus CD3", "T5 sequence (Q95LI5 22-198)": "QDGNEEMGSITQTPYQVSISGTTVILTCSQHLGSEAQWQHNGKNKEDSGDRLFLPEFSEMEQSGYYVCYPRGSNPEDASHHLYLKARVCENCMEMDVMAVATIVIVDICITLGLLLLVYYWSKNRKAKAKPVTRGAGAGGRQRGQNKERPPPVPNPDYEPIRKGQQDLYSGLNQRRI", "assay": "FACS, 4119LnPx"}, "[6]": {"biological_target": "T6, 1-27 CD3-Fc (N-terminal amino acids 1-27 of the mature human CD3 epsilon chain fused to the hinge and Fc … (human))", "T6 construct": "also called 1-27 CD3ε-Fc; human CD3 epsilon (aa 1-27)-Fc fusion protein", "assay": "SPR (Biacore 2000), 1-27 CD3-Fc coupled to CM5 chip, analyte 5 µg/ml"}, "[7]": {"biological_target": "T6, 1-27 CD3-Fc (N-terminal amino acids …)", "assay": "ELISA, periplasmic scFv on captured 1-27 CD3-Fc"}, "swine 1-27 CD3ε-EpCAM": {"biological_target": "T7, swine 1-27 CD3ε-EpCAM (Sus scrofa CD3 epsilon 1-27, cynomolgus …)", "T7 construct": "Negative control construct on 293-HEK cells; also called 1-27 CD3-EpCAM comprising the swine 27 mer", "T7 chain": "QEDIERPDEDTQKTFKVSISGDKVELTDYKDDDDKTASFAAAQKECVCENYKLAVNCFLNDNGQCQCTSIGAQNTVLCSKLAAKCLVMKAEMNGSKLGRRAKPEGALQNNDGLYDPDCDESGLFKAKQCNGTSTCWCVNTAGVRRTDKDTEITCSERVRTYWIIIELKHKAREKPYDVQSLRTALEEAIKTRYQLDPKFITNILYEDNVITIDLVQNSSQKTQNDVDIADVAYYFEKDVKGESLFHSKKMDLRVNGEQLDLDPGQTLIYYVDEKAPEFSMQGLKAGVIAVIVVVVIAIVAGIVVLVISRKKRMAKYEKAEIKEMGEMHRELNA", "assay": "FACS on transfected 293-HEK cells"}, "marmoset 1-27 CD3ε-EpCAM": {"biological_target": "T8, marmoset 1-27 CD3ε-EpCAM (Callithrix jacchus CD3 epsilon 1-27, …)", "T8 construct": "On transiently transfected 293-HEK cells; also called 1-27 CD3-EpCAM comprising the marmoset 27 mer", "T8 chain": "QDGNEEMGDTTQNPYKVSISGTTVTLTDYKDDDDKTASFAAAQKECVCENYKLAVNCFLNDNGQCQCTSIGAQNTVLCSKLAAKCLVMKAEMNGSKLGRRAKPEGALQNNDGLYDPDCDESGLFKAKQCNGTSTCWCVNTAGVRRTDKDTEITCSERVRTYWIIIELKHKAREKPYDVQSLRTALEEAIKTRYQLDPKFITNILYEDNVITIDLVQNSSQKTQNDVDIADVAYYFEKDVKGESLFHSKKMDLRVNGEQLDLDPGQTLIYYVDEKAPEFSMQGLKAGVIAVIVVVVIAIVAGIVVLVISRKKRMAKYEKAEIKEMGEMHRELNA", "assay": "FACS on transfected 293-HEK cells, periplasmic scFv"}, "tamarin 1-27 CD3ε-EpCAM": {"biological_target": "T9, tamarin 1-27 CD3ε-EpCAM (Saguinus oedipus CD3 epsilon 1-27, …)", "T9 construct": "On transiently transfected 293-HEK cells; also called 1-27 CD3-EpCAM comprising the tamarin 27 mer", "T9 chain": "T8 chain", "assay": "FACS on transfected 293-HEK cells, periplasmic scFv"}, "[8]": {"biological_target": "T10, squirrel monkey 1-27 CD3ε-EpCAM (Saimiri sciureus CD3 epsilon 1-27, …)", "T10 construct": "also called 1-27 CD3-EpCAM comprising the squirrel monkey 27 mer", "T10 chain": "T8 chain with M7I", "assay": "FACS on transfected 293-HEK cells, periplasmic scFv"}, "human 1-27 CD3ε-EpCAM": {"biological_target": "T11, human 1-27 CD3ε-EpCAM (human CD3 epsilon 1-27, cynomolgus EpCAM)", "T11 construct": "Transmembrane fusion: CD3 epsilon 1-27, Flag tag, mature cynomolgus EpCAM; on transiently transfected 293-HEK cells; also called 1-27 CD3-EpCAM comprising the human 27 mer", "T11 chain": "T8 chain with D9G, T10I, N13T, T25I", "assay": "FACS on transfected 293-HEK cells, periplasmic scFv"}}, "note": "Positions count from the first letter of the chain named. In names and notes the source's numbering stands."}
{"binder": "B1", "values": [{"measurement": "binding result", "setting": "[1]", "value": "no binding"}, {"measurement": "binding result", "setting": "[2]", "value": "no binding"}, {"measurement": "binding result", "setting": "[3]", "value": "no binding"}, {"measurement": "binding result", "setting": "[4]", "value": "no binding"}]}
{"binder": "B2", "values": [{"measurement": "binding result", "setting": "[1]", "value": "no binding"}, {"measurement": "binding result", "setting": "[2]", "value": "no binding"}, {"measurement": "binding result", "setting": "[3]", "value": "no binding"}, {"measurement": "binding result", "setting": "[4]", "value": "no binding"}]}
{"binder": "B3", "values": [{"measurement": "binding result", "setting": "[5]", "value": "binds"}]}
{"binder": "B4", "values": [{"measurement": "Kd", "setting": "[6]", "value": 249, "unit": "nM"}]}
{"binder": "B5", "values": [{"measurement": "Kd", "setting": "[6]", "value": 2460, "unit": "nM"}]}
{"binder": "B6", "values": [{"measurement": "binding result", "setting": "[7]", "value": "binds"}]}
{"binder": "B7", "values": [{"measurement": "binding result", "setting": "swine 1-27 CD3ε-EpCAM", "value": "no binding"}, {"measurement": "binding result", "setting": "[7]", "value": "binds"}, {"measurement": "binding result", "setting": "marmoset 1-27 CD3ε-EpCAM", "value": "binds"}, {"measurement": "binding result", "setting": "tamarin 1-27 CD3ε-EpCAM", "value": "binds"}, {"measurement": "binding result", "setting": "[8]", "value": "binds"}, {"measurement": "binding result", "setting": "human 1-27 CD3ε-EpCAM", "value": "binds"}]}
